Experimental data taken from patent US20140205597A1.

What was measured:
[1] = biological target: analytical polyclonal antibody obtained in Example 2; assay: SPR Biacore T100, immobilized polyclonal, 500 nM ISV
[2] = biological target: affinity purified antibody IHuP#002-001-ABL-08; assay: ECL bridging/competition assay, 10 ug/ml ISV vs tagged ISV
[3] = biological target: serum sample IHUS#B09032311A1; assay: ECL displacement assay, variant competes with tagged SEQ ID NO:1
[4] = biological target: serum sample IHUS#B09032311A20; assay: as above
[5] = biological target: serum sample IHUS#B09032311A3; assay: as above

Binding (RU) [1]	% reduction [2]	ECLU confirmatory assay [2]	% reduction [3]	ECLU confirmatory assay [3]	% reduction [4]	ECLU confirmatory assay [4]	% reduction [5]	ECLU confirmatory assay [5]	Binder
–	7.3%	2710 ECLU	4%	60 ECLU	53%	8680 ECLU	20%	1780 ECLU	Example 1C: wildtype VHH (SEQ ID NO: 23) (VHH) VHH: EVQLVESGGGLVQAGGSLRLSCAASGRTFNNYAMGWFRRAPGKEREFVAAITRSGVRSGVSAIYGDSVKDRFTISRDNAKNTLYLQMNSLKPEDTAVYTCAASAIGSGALRRFEYDYSGQGTQVTVSS
–	13.2%	2530 ECLU	5%	59 ECLU	62%	6990 ECLU	31%	1530 ECLU	Example 1C: (Q108L) (SEQ ID NO: 26) (VHH) VHH: EVQLVESGGGLVQAGGSLRLSCAASGRTFNNYAMGWFRRAPGKEREFVAAITRSGVRSGVSAIYGDSVKDRFTISRDNAKNTLYLQMNSLKPEDTAVYTCAASAIGSGALRRFEYDYSGQGTLVTVSS
–	91.4%	251 ECLU	6%	58 ECLU	97%	570 ECLU	90%	228 ECLU	Example 1C: (A14P, R39Q, K83R, T91Y, Q108L) (SEQ ID NO: 28) (VHH) VHH: EVQLVESGGGLVQPGGSLRLSCAASGRTFNNYAMGWFRQAPGKEREFVAAITRSGVRSGVSAIYGDSVKDRFTISRDNAKNTLYLQMNSLRPEDTAVYYCAASAIGSGALRRFEYDYSGQGTLVTVSS
51 RU	–	–	–	–	–	–	–	–	Nb4.1 (VHH) VHH: EVQLVESGGGLVQPGGSLRLSCAASGSVFKINVMAWYRQAPGKGRELVAGIISGGSTSYADSVKGRFTISRDNAKNTLYLQMNSLRPEDTAVYYCAFITTESDYDLGRRYWGQGTLVTVSS
91 RU	–	–	–	–	–	–	–	–	Nb3.10 (VHH) VHH: EVQLVESGGGLVQAGGSLRLSCAASRSIGRLDRMGWYRHRPGEPRELVATITGGSSINYGDSVKGRFTISIDNSKNTVYLQMNSLRPEDTAVYYCNFNKYVTSRDTWGQGTLVTVSS
88 RU	–	–	–	–	–	–	–	–	Nb3.11 (VHH) VHH: EVQLVESGGGLVQPGGSLRLSCAASRSIGRLDRMGWYRHRPGEPRELVATITGGSSINYGDSVKGRFTISIDNSKNTVYLQMNSLKPEDTAVYYCNFNKYVTSRDTWGQGTLVTVSS
79 RU	–	–	–	–	–	–	–	–	Nb3.14 (VHH) VHH: EVQLVESGGGLVQPGGSLRLSCAASRSIGRLDRMGWYRHRPGEPRELVATITGGSSINYGDSVKGRFTISIDNSKNTVYLQMNSLRPEDTAVYYCNFNKYVTSRDTWGQGTLVQVSS
90 RU	–	–	–	–	–	–	–	–	Nb3.13 (VHH) VHH: EVQLVESGGGLVQPGGSLRLSCAASRSIGRLDRMGWYRHRPGEPRELVATITGGSSINYGDSVKGRFTISIDNSKNTVYLQMNSLRPEDTAVYYCNFNKYVTSRDTWGQGTQVTVSS

More lines, now with the values behind:

Binder	Binding (RU) [1]	% reduction [2]	ECLU confirmatory assay [2]	% reduction [3]	ECLU confirmatory assay [3]	% reduction [4]	ECLU confirmatory assay [4]	% reduction [5]	ECLU confirmatory assay [5]
Nb6.5 (VHH) VHH: EVQLLESGGGLVQPGGSLRLSCAASGLPFSTKSMGWFRQAPGKGREFVSRISPGGTSRYYGDFVKGRFTISRDNSKNTLYLQMNSLRAEDTAVYYCASGERSTYIGSNYYRTNEYDYWGQGTLVTVSS	66 RU	–	–	–	–	–	–	–	–
Nb6.2 (VHH) VHH: EVQLVESGGGLVQPGGSLRLSCIASGLPFSTKSMGWFRQAPGKEREFVARISPGGTSRYYGDFVKGRFAISRDNAKNTTWLQMNSLKAEDTAVYYCASGERSTYIGSNYYRTNEYDYWGTGTQVTVSS	39 RU	–	–	–	–	–	–	–	–
Example 1C: (A14P, K83R, Q108L) (SEQ ID NO: 27) (VHH) VHH: EVQLVESGGGLVQPGGSLRLSCAASGRTFNNYAMGWFRRAPGKEREFVAAITRSGVRSGVSAIYGDSVKDRFTISRDNAKNTLYLQMNSLRPEDTAVYTCAASAIGSGALRRFEYDYSGQGTLVTVSS	–	89.1%	319 ECLU	8%	57 ECLU	97%	628 ECLU	93%	156 ECLU
Example 1C: (A14P) (SEQ ID NO: 24) (VHH) VHH: EVQLVESGGGLVQPGGSLRLSCAASGRTFNNYAMGWFRRAPGKEREFVAAITRSGVRSGVSAIYGDSVKDRFTISRDNAKNTLYLQMNSLKPEDTAVYTCAASAIGSGALRRFEYDYSGQGTQVTVSS	–	90.8%	268 ECLU	10%	56 ECLU	96%	668 ECLU	91%	205 ECLU
Example 1C: (K83R) (SEQ ID NO: 25) (VHH) VHH: EVQLVESGGGLVQAGGSLRLSCAASGRTFNNYAMGWFRRAPGKEREFVAAITRSGVRSGVSAIYGDSVKDRFTISRDNAKNTLYLQMNSLRPEDTAVYTCAASAIGSGALRRFEYDYSGQGTQVTVSS	–	15.7%	2460 ECLU	1%	62 ECLU	63%	6910 ECLU	37%	1400 ECLU
Nb3.12 (VHH) VHH: EVQLVESGGGLVQAGGSLRLSCAASRSIGRLDRMGWYRHRPGEPRELVATITGGSSINYGDSVKGRFTISIDNSKNTVYLQMNSLRPEDTAVYYCNFNKYVTSRDTWGQGTQVTVSS	86 RU	–	–	–	–	–	–	–	–
Nb3.1 (VHH) VHH: EVQLVESGGGLVQAGGSLRLSCAASRSIGRLDRMGWYRHRTGEPRELVATITGGSSINYGDFVKGRFTISIDNAKNTVYLQMNNLKPEDTAVYYCNFNKYVTSRDTWGQGTQVTVSS	2 RU	–	–	–	–	–	–	–	–
Nb3.15 (VHH) VHH: EVQLVESGGGSVQPGGSLRLSCAASRSIGRLDRMGWYRHRPGEPRELVATITGGSSINYGDSVKGRFTISIDNSKNTVYLQMNSLRPEDTAVYYCNFNKYVTSRDTWGQGTLVTVSS	22 RU	–	–	–	–	–	–	–	–
